The source of these data is publication PMC11424739.

For this data set, the system named is CC(C)CC1CC(=O)NC(=O)C1. As to the kind of experiment: purified protein. Type of data set: biochemical, Paraburkholderia phytofirmans. Conditions: 50 mmol L^-1 Tris-HCl pH 8.0, 40 °C, IBI 0.10-2.0 mg mL^-1.

In the case of “BpIH (Paraburkholderia phytofirmans PsJN)”, the Km (as a rule, the substrate concentration at which the rate is half of its maximum) was determined as 9.02 ± 0.51 mM; the kcat (as a rule, the number of substrate molecules converted per active site and unit of time at saturation) was found to be 0.00967 ± 0.0075 s⁻¹; the kcat/Km – broadly, the turnover number divided by the Michaelis constant – came to 1.07 M⁻¹ s⁻¹.
For “BpIH (Paraburkholderia phytofirmans PsJN; H133N/S226L/Y37F)”, in that order: 8.48 ± 1.03 mM, 0.052 ± 0.00367 s⁻¹ and 5.67 M⁻¹ s⁻¹.
For “BpIH (Paraburkholderia phytofirmans PsJN; S226L)”, in that order: 9.28 ± 1.09 mM, 0.0517 ± 0.00617 s⁻¹ and 5.47 M⁻¹ s⁻¹.
On to “BpIH (Paraburkholderia phytofirmans PsJN; H133N/S226I/Y37F)”, for which the Km was 7.31 ± 0.73 mM, the kcat came out at 0.0573 ± 0.005 s⁻¹ and the kcat/Km stood at 7.82 M⁻¹ s⁻¹.
